According to patent US20190194309A1 (AGENCY FOR SCIENCE TECHNOLOGY AND RESEARCH, published 2019):

Molecular target: T1, Macrophage stimulating protein receptor (RON - Recepteur d' Origine Nantais), human (human, UniProt Q04912 25-1400)
T1 construct: whole, on cells; Endogenous RON of human cancer cell lines (HCT116, HT29, T47D and others) or RON transfected into H1299 cells; In Western blots and immunoprecipitations it comes from cell lysates; also called human RON receptor tyrosine kinase; MST1R
Assay: immunofluorescence on PFA fixed HCT116 cells
Protocol: Cells were stained with DAPI for nuclear visualization and anti-mouse conjugate to 488 was used as a secondary mouse antibody.
The 4% paraformaldehyde fixed HCT116 and TKO cells were subjected to permeabilization with 0.4% Triton X-100 for 20 minutes. After rinsing with PBS, cells were blocked with 5% BSA in PBSTritonX (PBSTX) for 20 min, followed by overnight incubation in hybridoma supernatant at 4° C. IgGs were detected using 1:1000 […] Alexaflor 488 Donkey anti-mouse IgG conjugated (Life technologies) in PBSTX with 1% BSA. Subsequently, cells were counterstained with DAPI, and viewed with Incell Analyzer (GE Healthcare).

- binding result: binds
B1: 7G8 (antibody, V domains shown)
VH: EVQLEQSGGGLVQPGGSLKLSCAASGFTFNTYTMSWVRQTPEKRLEWVAYISNGGGSTYYPDTVKGRFTISRDNAKNTLYLQMSSLKSEDTAMYYCARGYRYAAMDYWGQGTSVTVSS
VL: DIVMTQTTATLSVTPGDGVSLSCRASQSINNNLHWYQQKSHESPRLLIKFASQSISGIPSRFSGSGSGTDFTLSINSVETEDFGMYFCQQSNSWPLTFGAGTKLELK
notes: Mouse monoclonal antibody from a hybridoma (Balb/c mice immunised with truncated human RON-GST); kappa light chain; Tested as hybridoma supernatant or purified mAb; also called mAb 7G8; anti-RON mouse mAb 7G8
